The values that follow come from IntAct's records for PubMed 26224785.

Sequences and labels used below:
B1: Microsomal triglyceride transfer protein large subunit (Homo sapiens), P55157 (parent)
chain: MILLAVLFLCFISSYSASVKGHTTGLSLNNDRLYKLTYSTEVLLDRGKGKLQDSVGYRISSNVDVALLWRNPDGDDDQLIQITMKDVNVENVNQQRGEKSIFKGKSPSKIMGKENLEALQRPTLLHLIHGKVKEFYSYQNEAVAIENIKRGLASLFQTQLSSGTTNEVDISGNCKVTYQAHQDKVIKIKALDSCKIARSGFTTPNQVLGVSSKATSVTTYKIEDSFVIAVLAEETHNFGLNFLQTIKGKIVSKQKLELKTTEAGPRLMSGKQAAAIIKAVDSKYTAIPIVGQVFQSHCKGCPSLSELWRSTRKYLQPDNLSKAEAVRNFLAFIQHLRTAKKEEILQILKMENKEVLPQLVDAVTSAQTSDSLEAILDFLDFKSDSSIILQERFLYACGFASHPNEELLRALISKFKGSIGSSDIRETVMIITGTLVRKLCQNEGCKLKAVVEAKKLILGGLEKAEKKEDTRMYLLALKNALLPEGIPSLLKYAEAGEGPISHLATTALQRYDLPFITDEVKKTLNRIYHQNRKVHEKTVRTAAAAIILNNNPSYMDVKNILLSIGELPQEMNKYMLAIVQDILRFEMPASKIVRRVLKEMVAHNYDRFSRSGSSSAYTGYIERSPRSASTYSLDILYSGSGILRRSNLNIFQYIGKAGLHGSQVVIEAQGLEALIAATPDEGEENLDSYAGMSAILFDVQLRPVTFFNGYSDLMSKMLSASGDPISVVKGLILLIDHSQELQLQSGLKANIEVQGGLAIDISGAMEFSLWYRESKTRVKNRVTVVITTDITVDSSFVKAGLETSTETEAGLEFISTVQFSQYPFLVCMQMDKDEAPFRQFEKKYERLSTGRGYVSQKRKESVLAGCEFPLHQENSEMCKVVFAPQPDSTSSGWF
B2: Microsomal triglyceride transfer protein large subunit (Homo sapiens), P55157 (parent)
chain: B1 chain
partner: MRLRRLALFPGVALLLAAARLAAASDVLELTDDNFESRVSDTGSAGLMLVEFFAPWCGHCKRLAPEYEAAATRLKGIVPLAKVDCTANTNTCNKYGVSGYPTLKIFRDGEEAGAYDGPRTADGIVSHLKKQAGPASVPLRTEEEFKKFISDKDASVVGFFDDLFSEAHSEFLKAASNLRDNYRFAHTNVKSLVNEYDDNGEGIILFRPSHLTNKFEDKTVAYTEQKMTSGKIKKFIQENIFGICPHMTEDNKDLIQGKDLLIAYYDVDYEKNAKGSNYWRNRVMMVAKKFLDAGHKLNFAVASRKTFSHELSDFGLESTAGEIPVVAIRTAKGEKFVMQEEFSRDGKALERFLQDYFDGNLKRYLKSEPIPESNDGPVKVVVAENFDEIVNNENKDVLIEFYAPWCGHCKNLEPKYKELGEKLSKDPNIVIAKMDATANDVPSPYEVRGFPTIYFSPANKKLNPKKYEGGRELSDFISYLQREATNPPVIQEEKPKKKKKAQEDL

One assay covers variants of B1. Particulars: with apob_human APOB.
Consider K189R, for which the “effect of a mutation on the interaction” value is reported as “with no effect”. K189L: the “effect of a mutation on the interaction” value was “with no effect”.

D169V: the “effect of a mutation on the interaction” value is listed as “with no effect”. With D169E, the “effect of a mutation on the interaction” value is recorded as “with no effect”. In the case of K187L, the “effect of a mutation on the interaction” value was “with no effect”. Same read-out and setting: for K187R the value was “with no effect”.

The variants in the next assay derive from B2. Conditions: with pdia3_chlae PDIA3, Q4VIT4.
As for K187R, the “effect of a mutation on the interaction” value is on record as “with no effect”. Consider K187L, for which the “effect of a mutation on the interaction” value was “decreasing interaction strength”. Regarding K189L, the “effect of a mutation on the interaction” value is “decreasing interaction strength”. On the same count and under the same terms, under K189R stands “with no effect”; under D169V, “disrupting interaction strength”; under D169E, “with no effect”.

The variants in a further assay derive from B2. Particulars: with pdia3_chlae PDIA3, Q4VIT4. The source holds these as a separate data set.
For the variant K187L, the “effect of a mutation on the interaction” value was “with no effect”. Take K189L: the “effect of a mutation on the interaction” value is listed as “with no effect”. The same measure, in the same setting: for D169V the value was “with no effect”.
